In IntAct's records for PubMed 22612223:

Molecular target: cdc37_human CDC37 (UniProt Q16543)
Sequence (Q16543 whole entry): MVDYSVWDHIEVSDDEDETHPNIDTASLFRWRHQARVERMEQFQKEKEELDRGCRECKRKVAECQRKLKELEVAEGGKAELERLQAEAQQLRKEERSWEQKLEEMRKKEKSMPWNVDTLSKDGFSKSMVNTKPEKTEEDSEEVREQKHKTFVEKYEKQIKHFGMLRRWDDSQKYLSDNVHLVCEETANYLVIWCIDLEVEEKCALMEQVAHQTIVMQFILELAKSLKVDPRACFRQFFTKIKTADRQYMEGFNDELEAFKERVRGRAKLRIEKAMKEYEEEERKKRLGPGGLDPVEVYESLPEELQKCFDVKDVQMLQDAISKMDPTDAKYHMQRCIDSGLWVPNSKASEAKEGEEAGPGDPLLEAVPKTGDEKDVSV

Leucine-rich repeat serine/threonine-protein kinase 2 (Homo sapiens), Q5S007 G2385R
effect of a mutation on the interaction: increasing interaction
